The source of these data is publication PMC10447535.

Data set [1] is described as follows: immunofluorescence, cell surface level, MKN28. The note with it: glycan lost; control: KIAA1324 WT.
The nature of data set [2]: cycloheximide chase immunoblot, MKN28. The note with it: glycan lost; control: KIAA1324 WT. (A western blot detects proteins with antibodies after separation by electrophoresis.)

B1: KIAA1324 (ELAPOR1, inceptor): 3NQ (protein)
parent chain: MAEPGHSHHLSARVRGRTERRIPRLWRLLLWAGTAFQVTQGTGPELHACKESEYHYEYTACDSTGSRWRVAVPHTPGLCTSLPDPIKGTECSFSCNAGEFLDMKDQSCKPCAEGRYSLGTGIRFDEWDELPHGFASLSANMELDDSAAESTGNCTSSKWVPRGDYIASNTDECTATLMYAVNLKQSGTVNFEYYYPDSSIIFEFFVQNDQCQPNADDSRWMKTTEKGWEFHSVELNRGNNVLYWRTTAFSVWTKVPKPVLVRNIAITGVAYTSECFPCKPGTYADKQGSSFCKLCPANSYSNKGETSCHQCDPDKYSEKGSSSCNVRPACTDKDYFYTHTACDANGETQLMYKWAKPKICSEDLEGAVKLPASGVKTHCPPCNPGFFKTNNSTCQPCPYGSYSNGSDCTRCPAGTEPAVGFEYKWWNTLPTNMETTVLSGINFEYKGMTGWEVAGDHIYTAAGASDNDFMILTLVVPGFRPPQSVMADTENKEVARITFVFETLCSVNCELYFMVGVNSRTNTPVETWKGSKGKQSYTYIIEENTTTSFTWAFQRTTFHEASRKYTNDVAKIYSINVTNVMNGVASYCRPCALEASDVGSSCTSCPAGYYIDRDSGTCHSCPTNTILKAHQPYGVQACVPCGPGTKNNKIHSLCYNDCTFSRNTPTRTFNYNFSALANTVTLAGGPSFTSKGLKYFHHFTLSLCGNQGRKMSVCTDNVTDLRIPEGESGFSKSITAYVCQAVIIPPEVTGYKAGVSSQPVSLADRLIGVTTDMTLDGITSPAELFHLESLGIPDVIFFYRSNDVTQSCSSGRSTTIRVRCSPQKTVPGSLLLPGTCSDGTCDGCNFHFLWESAAACPLCSVADYHAIVSSCVAGIQKTTYVWREPKLCSGGISLPEQRVTICKTIDFWLKVGISAGTCTAILLTVLTCYFWKKNQKLEYKYSKLVMNATLKDCDLPAADSCAIMEGEDVEDDLIFTSKKSLFGKIKSFTSKRTPDGFDSVPLKTSSGGLDMDL
With B1, the localisation_or_trafficking result in data set [1] was “decreases”. The “degradation_or_half_life, other: protein level remaining at 2 h” value in data set [2] is “decreases”.
